According to PMC10123100, “Single-molecule visualization of stalled replication-fork rescue by the Escherichia coli Rep helicase”:

Key:
Rep WT [1] = target: T1, Rep WT (Escherichia coli, UniProt P09980 1-673); test: SPR; no nucleotide, 5 mM Mg2+; kon 1.22e7 M-1 s-1, koff 5.91e-3 s-1; SPR: 25 mM Tris-HCl pH 7.6, 50 mM NaCl, 5 mM MgCl2, 0.25 mM DTT, 0.2 mM EDTA, 0.005% P20, 20 C; single-molecule: 25 mM Tris-HCl pH 7.9, 10 mM Mg acetate, 50 mM; settings: protein: recombinant; chain copies: 2; single strand
Rep K28A = Rep K28A (Escherichia coli, UniProt P09980 1-673, K28A); test: SPR; 200 uM ATP, dissociation not stimulated; SPR: 25 mM Tris-HCl pH 7.6, 50 mM NaCl, 5 mM MgCl2, 0.25 mM DTT, 0.2 mM EDTA, 0.005% P20, 20 C; single-molecule: 25 mM Tris-HCl pH 7.9, 10 mM Mg acetate, 50 mM; settings: protein: recombinant; tags: His6; chain copies: 2; single strand
Rep WT [2] = target: T1, Rep WT; test: SPR; no nucleotide, 5 mM Mg2+; 20 nM Rep; kon 1.03e6 M-1 s-1, koff 2.15e-4 s-1; SPR: 25 mM Tris-HCl pH 7.6, 50 mM NaCl, 5 mM MgCl2, 0.25 mM DTT, 0.2 mM EDTA, 0.005% P20, 20 C; single-molecule: 25 mM Tris-HCl pH 7.9, 10 mM Mg acetate, 50 mM; settings: protein: recombinant; chain copies: 2; single strand

Row | Binder | Kd (Rep WT [1]) [pM] | binding result (Rep K28A) | Kd (Rep WT [2]) [pM]
1 | TTTTTTTTTTTTTTT (ssDNA, 3'-biotin) [3'-bio-dT15] | 500 |  | 
2 | TTTTTTTTTTTTTTTTTTTTTTTTTTTTTTTTTTT (ssDNA, 3'-biotin) [3'-bio-dT35] |  | binds | 200
